Measurements: patent US20160213760A1

Biological target: human epidermal growth factor 2 (HER2)/neu receptor (human) (UniProt P04626)
Assay: cell-based or functional assay

IC50 of BT-474 cell proliferation (tritiated thymidine incorporation after 5-day treatment): 3.16 nM
Substance: protein conjugate H43 (ANG4043; trastuzumab conjugated to Angiopep-2) (antibody)
